The target of the assay is monoclonal antibody M75 (MAb M75), secreted from the hybridoma VU-M75, ATCC HB 11128. Briefly: competition ELISA: peptide in solution against immobilized GST-MN for M75.

For the molecule GGSSGEDDPLGEEDLPSEEDSP [oligopeptide … (aa 51-72) [SEQ ID NO: 104]], the IC50 turned out to be 1 ng/mL.
